One test addresses Fc-wtNKG2D (human) (UniProt P26718). In words: ELISA; wells coated with Fc-wtNKG2D, R3Mab heavy-chain MicAbody titrated.
The next test addresses Fc-iNKG2D.YA (human) (UniProt P26718). In words: ELISA; wells coated with Fc-iNKG2D.YA, R3Mab heavy-chain MicAbody titrated.

The source of these data is patent US20240277845A1.

Positions count from the first letter of the chain named. Names and notes keep the numbering of the source.

Sequence of Fc-wtNKG2D (human) (P26718 other isoform, or with tags, fused parts or gaps limits assumed): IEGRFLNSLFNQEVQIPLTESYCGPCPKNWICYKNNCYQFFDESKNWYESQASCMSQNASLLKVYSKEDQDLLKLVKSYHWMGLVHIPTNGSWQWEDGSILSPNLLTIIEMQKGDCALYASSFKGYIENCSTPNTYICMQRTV
Sequence of Fc-iNKG2D.YA (human) (P26718 other isoform, or with tags, fused parts or gaps limits assumed): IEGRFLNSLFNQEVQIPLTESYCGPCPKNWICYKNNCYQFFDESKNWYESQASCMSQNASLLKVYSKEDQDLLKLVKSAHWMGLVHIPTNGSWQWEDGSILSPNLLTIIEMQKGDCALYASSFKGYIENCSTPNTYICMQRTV

B1: R3Mab heavy-chain fusion of wild-type ULBP2 (MicAbody) (bispecific antibody, part only; not given: R3Mab variable domains, light chain, Fc, not shown: a dimerising Fc or GST)
heavy, part: GGGSDPHSLCYDITVIPKFRPGPRWCAVQGQVDEKTFLHYDCGNKTVTPVSPLGKKLNVTTAWKAQNPVLREVVDILTEQLRDIQLENYTPKEPLTLQARMSCEQKAEGHSSGSWQFSFDGQIFLLFDSEKRMWTTVHPGARKMKEKWENDKVVAMSFHYFSMGDCIGWLEDFLMGMDSTLEPSAGAP
In turn, B1 gave a concentration giving a half-maximal response (EC50 (read off the curve)) in the test with Fc-wtNKG2D (human) of 0.4 nM. This counts as sub-nanomolar.

B2: R3Mab heavy-chain fusion of ULBP2 R81W (MicAbody) (bispecific antibody, part only; not given: R3Mab variable domains, light chain, Fc, not shown: a dimerising Fc or GST)
heavy, part: B1 heavy, part with R82W
Regarding B2, the concentration giving a half-maximal response (EC50 (read off the curve)) with Fc-wtNKG2D (human) stood at 0.02 nM. This EC50 (read off the curve) lies about 20-fold lower than the previous one.

B3: R3Mab heavy-chain fusion of U2S3 (MicAbody) (bispecific antibody, part only; not given: R3Mab variable domains, light chain, Fc, IgG1, not shown: a dimerising Fc or GST)
heavy, part: GGGSEPHSLSYDITVIPKFRPGPRWCAVQGQVDEKTFLHYDCGNKTVTPVSPLGKKLNVTTAWKAQNPVLREVVDILTEQLWDIQLENYTPKEPLTLQARMSCEQKAEGHSSGSWQFSFDGQIFLLFDSEKRMWTTVHPGARKMKEKWENDKVVATKLYLWSMGDCIGWLEDFLMGMDSTLEP
As to B3, in the test with Fc-iNKG2D.YA (human), the EC50 (read off the curve) is 0.02 nM.
